# According to the DeepSol protein solubility set:
# Assay: soluble on expression in E. coli; label from the status in PepcDB or PDB records
row,Sequence,soluble on expression in E. coli
1,MERVVINVSGLRFETQMKTLAQFPETLLGDPEKRTQYFDPLRNEYFFDRNRPSFDAILYYYQSGGRLKRPVNVPFDIFTEEVKFYQLG,soluble
2,MYIGIDLGTSGVKVILLNEQGEVVASQTEKLTVSRPHPLWSEQDPEQWWQATDRAMKALGDQHSLQDVKALGIAGQMHGATLLDAQQRVLRPAILWNDGRCAQECTLLEARVPQSRVITGNLMMPGFTAPKLLWVQRHEPEIFRQIDKVLLPKDYLRLRMTGEFASDMSDAAGTMWLDVAKRDWSDVMLQACDLSRDQMPALYEGSEITGALLPEVAKAWGMATVPVVAGGGDNAAGAVGVGMVDANQAMLSLGTSGVYFAVSEGFLSKPESAVHSFCHALPQRWHLMSVMLSAASCLDWAAKLTGLCNVPALIAAAQQADESAEPVWFLPYLSGERTPHNNPQAKGVFFGLTHQHGPNELARAVLEGVGYALADGMDVVHACGIKPQSVTLIGGGARSEYWRQMLADISGQQLDYRTGGDVGPALGAARLAQIAANPEKSLIELLPQLPLEQSHLPDAQRYAAYQPRRETFRRLYQQLLPLMA,not soluble
3,KTYGPLKNLPHLEKEQLSQSLWRIADELGPIFRFDFPGVSSVFVSGHNLVAEVCDEKRFDKNLGKGLQKVREFGGDGLFTSWTHEPNWQKAHRILLPSFSQKAMKGYHSMMLDIATQLIQKWSRLNPNEEIDVADDMTRLTLDTIGLCGFNYRFNSFYRDSQHPFITSMLRALKEAMNQSKRLGLQDKMMVKTKLQFQKDIEVMNSLVDRMIAERKANPDENIKDLLSLMLYAKDPVTGETLDDENIRYQIITFLIAGHETTSGLLSFAIYCLLTHPEKLKKAQEEADRVLTDDTPEYKQIQQLKYIRMVLNETLRLYPTAPAFSLYAKEDTVLGGEYPISKGQPVTVLIPKLHRDQNAWGPDAEDFRPERFEDPSSIPHHAYKPFGNGQRACIGMQFALQEATMVLGLVLKHFELINHTGYELKIKEALTIKPDDFKITVKPRKTAAINVQRKEQADIKAETKPKETKPKHGTPLLVLFGSNLGTAEGIAGELAAQGRQMGFTAETAPLDDYIGKLPEEGAVVIVTASYNGAPPDNAAGFVEWLKELEEGQLKGVSYAVFGCGNRSWASTYQRIPRLIDDMMKAKGASRLTAIGEGDAADDFESHRESWENRFWKETMDAFDINEIAQKEDRPSLSITFLSEATETPVAKAYGAFEGIVLENRELQTAASTRSTRHIELEIPAGKTYKEGDHIGILPKNSRELVQRVLSRFGLQSNHVIKVSGSAHMAHLPMDRPIKVVDLLSSYVELQEPASRLQLRELASYTVCPPHQKELEQLVSDDGIYKEQVLAKRLTMLDFLEDYPACEMPFERFLALLPSLKPRYYSISSSPKVHANIVSMTVGVVKASAWSGRGEYRGVASNYLAELNTGDAAACFIRTPQSGFQMPNDPETPMIMVGPGTGIAPFRGFIQARSVLKKEGSTLGEALLYFGCRRPDHDDLYREELDQAEQDGLVTIRRCYSRVENEPKGYVQHLLKQDTQKLMTLIEKGAHIYVCGDGSQMAPDVERTLRLAYEAEKAASQEESAVWLQKLQDQRRYVKDVW,not soluble
4,MGSDKIHHHHHHMYIRPFDPWKSKLCTCPFKYTLNPYTGCDHACVYCYITSYIPNAFKVRPKKNLLIQVERELRKFDKRYIIAMSYSSDPYPTIEKELGITRKVLELFRRYDVRCLILTKSDIFERDIDILKELRCAVGVTVTTIDERKAKLLEPNAPLPKDRIRALKKAKKEGIPVYARVDPIIPFYTWEDFRKTVDALSFVSHITVSTLKLRPDIKARMRAKFPELMKKLEPLYTERYEGYAYLRKDMRFRILNEARKIIEGKGITFGSCREGYYSYPTCDGSHLVP,not soluble
5,MNRDIGKNAERELVSILRGEGFNAVRIPTSNSSPNPLPDIFATKGNTLLSIECKSTWENKVKVKEHQVRKLLDFLSMFTMKGVPLIAIKFKQVHEWRVLVPEKAEDIIVTIDNSIPIEDLFKILEKRIEEKILTP,soluble
6,FINDVDLIITVEELDSFLEDQLLQLLGKHDISKTVYGKKNNIFPCCGEYSVDIVKTGINKVLDILKIQKIEISEKLIEKTDIIPLPVRPPNLCAGCMHRTVFYAFKEVSKDLKKQNIQIIFSGDIGCYTLGNAPPLELIDTCLCMGAGISLAGGI,not soluble
7,MKKTPLYEAHLRLGARMVDFAGYLLPLQYTSIVEEHLAVRRAVGVFDVSHMGEFLVRGKEALAFLQWATANDAGKLKVGRAQYSMLPNERGGVVDDIYLYRLGEEEYLMVVNAANIAKDLAHLQALAKGFRVELEDASERTALLALQGPKAASLLQGLTDLDLSQKRKNDVFPARVAGRPARLARTGYTGEDGFELFLAPEDAEPVFLALVEAGAKPAGLGARDSLRLEAGFPLYGHELTEETNPLCTPWAWVVKKEKAFLGKEAMLAQACRERLVGLVLEGGIPREGYRVLSGGRPVGRVTSGGYSPLLQRGIALAYVEEGAEGPFQVEVRGRAVPAALSPLPFVPLK,soluble
8,MSLTNSSKSFTKFMAASAVFTMGFLSVPTAGAEQTNQIANKPQAIQWHTNLTNERFTTIAHRGASGYAPEHTFQAYDKSHNELKASYIEIDLQRTKDGHLVAMHDETVNRTTNGHGKVEDYTLDELKQLDAGSWFNKKYPKYARASYKNAKVPTLDEILERYGPNANYYIETKSPDVYPGMEEQLLASLKKHHLLNNNKLKNGHVMIQSFSDESLKKIHRQNKHVPLVKLVDKGELQQFNDQRLKEIRSYAIGLGPDYTDLTEQNTHHLKDLGFIVHPYTVNEKADMLRLNKYGVDGVFTNFADKYKEVIKEGHHHHHH,soluble
9,MNAVKIEKGVAQYIEHNLYYYFEYVRDIQRLKKDILFGRANYDENVGGGRGNLPSRPTERRTIELITHRRLERLEQIVHAIQTVYRSLSPEKQKAVQLKYWSGKSYTWEQVAREIGVSVRQLYRWRDQIIYDIAKLLGEVNSNS,not soluble
10,MKKIDRVIESIQSRITEGRLKPGQKLPSIRQAVDEFGVSKNTVIEAYERLSARGLIRSVHGAGFFVCASTPAPLSKATQPAHIVEAVDRLTLLTAQLDQEKLPVRVGDGRPPQSWMNDALPLRMKGNIFKNFVGDPSGYGGVSGHLQLRELIAARSNRADMSVHPDQIVTTFGANHALDLIIRRYLEPGDVVLVDDPGYYPLLGKFKLAKIRAIGVPRTPTGPDLDVMETLAAAHGPKMFFTQSTCQNPTGSSMSLPVAHGVLQVAQRFGLMVIDNDPFTDLPGNAGVPLSALDAFNSVIAISSFSKLLSASFRVGYVIARPEVARELTELKLLTVVNSSRFSEMVIAELIKSQRYGRHLNKLVNRLEEARRDYHRKVRKLGLDVFCAQETGYYSFLQLPHTVDEGQLVRKASAAGIMLAPGRLFAVDENPARPALRINVTRADDPRFYRFLKRQVIDGQV,not soluble
11,PARPFRVSNHDRSSRRGVMASSLQELISKTLDALVIATGLVTLVLEEDGTVVDTEEFFQTLGDNTHFMILEKGQKWMP,soluble
12,MLSIKGKKWRNWTGNVEGTPHYTMYPESIQDVVEVVGLARKKGKKIRVVGSGHSFTPLVQTEEVLVSLDELKGIVNIDAEKMVAEVWAGTKLYDLGKLLEEKGYAQENLGDIDSQSIAGAISTGTHGTGITFGSLSTQVIEITAVLSNGESIVCSETENVEYWRAFQLSLGMLGIIVKIKLKVIPAYSLVYESEKQSLSTVMNKLEEYKKHRHFEFFVFPYSDEVQVKLTNETTNTGSDLKWHKLKVELLENRMFSLLSKGCKWFPSISKGVSRLSAKAVPNTKIIGPSYEVFATSRTVPFYEMEYSIPSKYMRTVVEEISNLIEKKKYKVHFPIECRYVKGDDIWLSPAYGRDSAYIAVHMYKGMKYAAYFGEVEKIFLKYEGRPHWGKMHTLSYEQLQDIYPEFHSFLQARKSLDELGMFFNPYAEKLFIPLFAGQLEHHHHHH,soluble
13,MGSDKIHHHHHHMSEEIELKFIVHPDSVESLLTQLAEWESDYSQYEHMRAQRLSNIYYETADNYLRRNGIGLRIRGENERYEMTAKTAGKVIGGLHQHPEYNVALETAELDLSLFPAEIWPEDCDVKTLQPSLNPLFSTDFTREKWVFTYYQSVIEVALDRGEIRAGDLSEPLCELEMELKVGQTTHLLALAKEIAEFGGMRQGSLSKAARGYHLAKGNPVRECLPLNRLVVDSKTNIDQAIRAALELALSHWQYHEELWVRGDSSAREALPQASALMREMLVLVGGVVLRRVTTLFRSALSTLENRLQGSGGSEICYSTDYLQSKLVLTSWLVESGWRDYMDNKDRIKLQGSFKRFADIMLSRSTAELKSAFSSKLTAEQYEQQIPRLQRNLYAFLLLSGAYPADQVEAYVEHWQTLLQEIEHLAVDQAPSVYLEAYRKEVLTLPPFWLHSGGPSQ,not soluble
